Experimental data taken from article PMC6321344, “Evaluation of [^68Ga]Ga-DOTA-TCTP-1 for the Detection of Metalloproteinase 2/9 Expression in Mouse Atherosclerotic Plaques” (Molecules, 2018).
Positions of bridges follow the written chain, without caps; N, C: chain ends. Residues, ends and D or L forms follow the SMILES beside them. *: point of attachment. X1 = O=C(O)CN1CCN(CC(=O)O)CCN(CC(=O)NCCOCCOCCN*)CCN(CC(=O)O)CC1

Key:
in vivo [1] = details: LDLR^-/-ApoB^100/100, mouse, iv, 11 MBq, total radioactivity
Experimental: A subset of mice (three atherosclerotic and three healthy controls) were imaged using a small-animal PET/computed tomography (CT) scanner (Inveon Multimodality; Siemens Medical Solutions, Knoxville, TN, USA). The mice were anesthetized using 1.5% isoflurane, and their temperature was maintained using a heating pad throughout the imaging. Mice were i.v. injected with 11 ± 0.86 MBq (in 50–100 µL) of [^68Ga]Ga-DOTA-TCTP-1 via the tail vein. PET data were acquired in a list-mode for 60 min, starting from the time of injection of [^68Ga]Ga-DOTA-TCTP-1. The images were reconstructed using an ordered-subset expectation maximization 2D algorithm with four iterations into 30 × 3 s, 9 × 10 s, 4 × 30 s, 5 × 60 s, and […] time frames. Immediately after the PET scan, 100 µL of intravascular iodinated contrast agent eXIATM160XL (Binitio Biomedical Inc., Ottawa, ON, Canada) was injected and high-resolution CT was acquired (80 kV, 500 μA). CT images were reconstructed using a Feldkamp-based algorithm, and images were analyzed using Carimas v.2.6 software (Turku PET Centre, Turku, Finland). ROIs were drawn in the aortic arch, blood pool (inside the LV cavity), and several relevant organs, according to the high-resolution CT image. Results are reported as the percentage of injected dose per gram (%ID/g) as a function of the time after injection, i.e., as time-activity curves.

in vivo [2] = test: in vivo; design: species or system mouse; details: both sexes, iv, 18 MBq, total radioactivity, Tracer uptake
Text: (§1) Sixteen (eleven males, five females) low-density lipoprotein receptor deficient mice expressing only apolipoprotein B100 (LDLR^-/-ApoB^100/100, Jackson Laboratory, Bar Harbor, ME, USA, strain #003000) were used. Mice were kept on a Western-type diet for 4.4 months starting at the age of 3.5 months. Forty-two percent of their calorific intake consisted of fat and 0.2% cholesterol (TD 88137, Harlan Teklad, Harlan Laboratories, Madison, WI, USA). Nine C57BL/6N mice on a regular chow diet (five males, four females) were used as controls. The mean age and weight of the studied mice at the time of tracer injection were 8.2 ± 0.70 months and 38 ± 8.0 g for the LDLR^-/-ApoB^100/100 mice, and 3.9 ± 0.86 months and 31 ± 5.8 g for the controls. During the studies, mice were housed under standard conditions (light and humidity) with ad libitum access to water and food. The study protocol was approved by the National Animal Experiment Board in Finland and the Regional State Administrative Agency for Southern Finland, and carried out in compliance with the relevant European Union directives. The high-performance liquid chromatography (HPLC) system was a LaChrom instrument (Hitachi; Merck Darmstadt, Germany), including a pump L7100, an ultraviolet (UV) detector L-7400, an interface D-7000 and a computerized data acquisition and processing software. The reversed-phase HPLC column (μBondapak 10 μm C18, 7.8 × 300 mm, pore size 125 Å) was purchased from Waters Corporation, Milford, MA, USA. The online radioisotope detector (Radiomatic 150 TR, Flow Scintillation Analyzer) was from Packard, Meriden, CT, USA. The precursor compound DOTA-TCTP-1 (Figure 1) was obtained as a custom synthesis from Peptide Specialty Laboratories GmbH (Heidelberg, Germany).
(§2) Isoflurane anesthetized mice were intravenously (i.v.) injected with 18 ± 2.7 MBq (in 50–100 µL) of [^68Ga]Ga-DOTA-TCTP-1 via the tail vein. At 60 min after tracer injection, a blood sample was obtained by cardiac puncture and animals were killed by cervical dislocation. Various tissues were excised, weighed, and measured for radioactivity on a gamma counter (Triathler 3”, Hidex, Turku, Finland). Radioactivity values were normalized by the injected radioactivity dose decay with a delta time between injection and measurement, animal weight, and the weight of tissue. Results are expressed as the percentage of injected radioactivity dose per gram of tissue (%ID/g).

in vivo [3] = details: both sexes, C57BL/6N, mouse, iv, 18 MBq, total radioactivity, Tracer uptake
Text: as §1, §2

MMP-2/9 = details: quoted with the dose of the commercial inhibitor; ref product number 444251, Merck KGaA; cited from earlier work

Compound CC(C)C[C@@H]1NC(=O)[C@@H](NC(=O)[C@H](C)NC(=O)CN)CSSC[C@@H](C(=O)NCC(=O)NCCOCCOCCNC(=O)CN2CCN(CC(=O)O)CCN(CC(=O)O)CCN(CC(=O)O)CC2)NC(=O)CNC(=O)[C@H](CCCNC(=N)N)NC(=O)CNC(=O)[C@H](CO)NC(=O)[C@H](CCCNC(=N)N)NC1=O [[^68Ga]Ga-DOTA-TCTP-1, metal not drawn] (H-GACLRSGRGCG-X1; disulfide 3-10) has a tissue uptake at 1 h (in vivo [1]; Radioactivity in myocardium (PET/CT)) of 0.81 ± 0.3 %ID/g, a tissue uptake at 1 h (in vivo [1]; Uptake in atherosclerotic aorta (PET/CT)) of 0.77 ± 0.16 %ID/g and a tissue uptake at 1 h (in vivo [1]; Uptake in blood pool (PET/CT)) of 1.1 ± 0.64 %ID/g. It also gave a tissue uptake at 1 h (in vivo [1]; Uptake in liver (PET/CT)) of 4.7 ± 3.8 %ID/g, a tissue uptake at 1 h (in vivo [2]; LDLR-/-ApoB100/100, mouse, Bone) of 0.53 ± 0.37 %ID/g and a tissue uptake at 1 h (in vivo [2]; LDLR-/-ApoB100/100, mouse, Heart) of 0.23 ± 0.083 %ID/g. The tissue uptake at 1 h (in vivo [2]; LDLR-/-ApoB100/100, mouse, Intestine) was 0.59 ± 0.22 %ID/g, the tissue uptake at 1 h (in vivo [2]; LDLR-/-ApoB100/100, mouse, Kidneys) was 8 ± 2.9 %ID/g and the tissue uptake at 1 h (in vivo [2]; LDLR-/-ApoB100/100, mouse, Liver) was 1.8 ± 0.48 %ID/g. It also gave a tissue uptake at 1 h (in vivo [2]; LDLR^-/-ApoB^100/100, mouse, Aorta) of 0.43 ± 0.19 %ID/g, a tissue uptake at 1 h (in vivo [2]; LDLR^-/-ApoB^100/100, mouse, Blood) of 1.3 ± 0.4 %ID/g and a tissue uptake at 1 h (in vivo [2]; LDLR^-/-ApoB^100/100, mouse, Lungs) of 2.8 ± 1.6 %ID/g. It also gave a tissue uptake at 1 h (in vivo [2]; LDLR^-/-ApoB^100/100, mouse, Lymph node) of 0.49 ± 0.15 %ID/g, a tissue uptake at 1 h (in vivo [2]; LDLR^-/-ApoB^100/100, mouse, Pancreas) of 0.35 ± 0.17 %ID/g and a tissue uptake at 1 h (in vivo [2]; LDLR^-/-ApoB^100/100, mouse, Plasma) of 2.6 ± 1.4 %ID/g. For the same compound, the tissue uptake at 1 h (in vivo [2]; LDLR^-/-ApoB^100/100, mouse, Salivary gland) was 0.38 ± 0.15 %ID/g, the tissue uptake at 1 h (in vivo [2]; LDLR^-/-ApoB^100/100, mouse, Skeletal muscle) was 0.19 ± 0.077 %ID/g and the tissue uptake at 1 h (in vivo [2]; LDLR^-/-ApoB^100/100, mouse, Spleen) was 1.9 ± 1.6 %ID/g. For the same compound, the tissue uptake at 1 h (in vivo [2]; LDLR^-/-ApoB^100/100, mouse, Thymus) was 0.35 ± 0.29 %ID/g, the tissue uptake at 1 h (in vivo [2]; LDLR^-/-ApoB^100/100, mouse, WAT (white adipose tissue)) was 0.17 ± 0.21 %ID/g and the tissue uptake at 1 h (in vivo [3]; Aorta) was 0.52 ± 0.25 %ID/g. For the same compound, the tissue uptake at 1 h (in vivo [3]; Blood) was 0.69 ± 0.21 %ID/g, the tissue uptake at 1 h (in vivo [3]; Bone) was 0.63 ± 0.5 %ID/g and the tissue uptake at 1 h (in vivo [3]; Heart) was 0.16 ± 0.066 %ID/g. For the same compound, the tissue uptake at 1 h (in vivo [3]; Intestine) was 0.43 ± 0.18 %ID/g, the tissue uptake at 1 h (in vivo [3]; Kidneys) was 8.9 ± 3.6 %ID/g and the tissue uptake at 1 h (in vivo [3]; Liver) was 3.2 ± 1.6 %ID/g. It also gave a tissue uptake at 1 h (in vivo [3]; Lungs) of 1.3 ± 0.74 %ID/g, a tissue uptake at 1 h (in vivo [3]; Lymph node) of 0.48 ± 0.19 %ID/g and a tissue uptake at 1 h (in vivo [3]; Pancreas) of 0.17 ± 0.056 %ID/g. The tissue uptake at 1 h (in vivo [3]; Plasma) was 1.5 ± 1 %ID/g, the tissue uptake at 1 h (in vivo [3]; Salivary gland) was 0.23 ± 0.07 %ID/g and the tissue uptake at 1 h (in vivo [3]; Skeletal muscle) was 0.17 ± 0.13 %ID/g. The tissue uptake at 1 h (in vivo [3]; Spleen) was 1.7 ± 1.3 %ID/g, the tissue uptake at 1 h (in vivo [3]; Thymus) was 0.23 ± 0.07 %ID/g and the tissue uptake at 1 h (in vivo [3]; WAT (white adipose tissue)) was 0.17 ± 0.11 %ID/g.
In the case of “H-Cys^1-Thr-Thr-His-Trp-Gly-Phe-Thr-Leu-Cys^10-OH (cyclic: 1→10) (disulfide) [MMP-2/9 inhibitor]”, the IC50 (MMP-2/9) is listed as 10 µM.
